Series [1] can be described thus: Stability of mimetic peptide solution stored in direct contact with adhesive and insoluble tungsten (UPLC/DAD). It counts as physicochemical. Particulars: insoluble tungsten, 3 days at 70° C., ammonium acetate pH4 buffer (20 mM)+0.02% tween 80, 45 μg/ml. The protocol:
(§1) Peptide solutions were analyzed by LC/DAD/MS with Quattro premier XE Mass spectrometer from Waters.
The AAHAA (SEQ ID NO: 2) peptide was dissolved in ammonium acetate pH4 buffer (20 mM)+0.02% of tween 80 to a final concentration of 45 μg/ml. The AAHAA (SEQ ID NO: 2) peptide solution was stored in direct contact with the adhesive used to stake the needle to the syringe and with insoluble tungsten, a potential process residue, for 3 days at 70° C.
FIG. 3 is AAHAA (SEQ ID NO: 2) peptide ULPC/DAD chromatograms after 3 days at 70° C. in direct contact with two syringe components: (a) adhesive and (b) insoluble tungsten. (c) is chromatogram references.

Series [2] in a line: Stability of mimetic peptide solution stored in direct contact with plunger stoppers (UPLC/DAD/MS). Type of series: physicochemical. The protocol:
as §1
The peptide AAWAA (SEQ ID NO: 1) was dissolved in ammonium acetate pH4 buffer (20 mM)+0.02% Tween 80 to a final concentration of 45 μg/ml. The obtained AAWAA (SEQ ID NO: 1) peptide solutions were stored in direct contact with a non-coated and an ETFE coated plunger stoppers for 30 days at 25° C./60% RH.
FIG. 1 is a UPLC/DAD chromatogram of AAWAA (SEQ ID NO: 1) pentapeptide in direct contact with a coated and a non-coated plunger stopper after 15 days (c, d) and 30 days (a,b) of storage at 25° C./60% RH. Chromatograms e and f are AAWAA (SEQ ID NO: 1) solutions references (without any direct contact with plunger stoppers),
FIG. 2 is the electrospray positiv (ESI+) mass spectra of (a) intact AAWAA (SEQ ID NO: 1) peptide (Retention time of 17.2 min) and (b) oxidized form of AAWAA (SEQ ID NO: 1)(Retention time of 17.1 min) detected after 30 days (25° C.) of contact between the non-coated plunger stopper and AAWAA (SEQ ID NO: 1) peptide solution.

On to “Ala-Ala-His-Ala-Ala (AAHAA; synthesized pentapeptide) [mimetic model pentapeptide]”, for which the “reaction with syringe component (degradation)” value in series [1] is recorded as “react with insoluble tungsten”.

With “Ala-Ala-Trp-Ala-Ala (AAWAA; synthesized pentapeptide) [mimetic model pentapeptide]”, the “oxidized form (ESI+ mass spectra)” value in series [2] (after 30 days (25° C.) of contact with the non-coated plunger stopper) is “detected”. Also, the degradation yield entry in series [2] (non-coated vs ETFE coated plunger stopper, direct contact, 30 days at 25° C./60% RH, ammonium acetate pH4 buffer (20 mM)+0.02% Tween 80, 45 μg/ml) is reported as “more important when the peptide is in direct contact with the non-coated plunger stopper”.
